What all share (assay): SPR
Background: SPR reads the build-up and loss of mass on a sensor chip optically.

Experiment [1] deals with Recombinant human CypD protein (cyclophilin D) (human) (UniProt P30405).
A further experiment has as its target oligomeric Aβ40.
The target of the next experiment is oligomeric Aβ42.

Usually Kd stands for the free concentration of one partner at which half of the binding sites on the other are occupied at equilibrium, for simple one-to-one binding. On to Aβ40 (Aβ peptide residues 1-40), for which the Kd in experiment [1] was 1700 nM.

With “Recombinant human CypD protein (cyclophilin D) (from UniProt P30405 30-207) (natural protein)”, the values for the dissociation constant Kd in the experiment with oligomeric Aβ40 and with oligomeric Aβ42 were 227 nM and 4 nM, respectively.

Aβ42 (Aβ peptide residues 1-42): in experiment [1], the equilibrium dissociation constant (Kd) turned out to be 164 nM.

For the origin of these results see publication PMC2789841.
